# Test results as given in patent US7615610B2, “Modified trafficking patterns for arrestin and G-protein-coupled receptors via arrestin-ubiquitin chimera” (Duke University, priority 2003, dated 2009).
# Tests used:
# β2AR [1] = target: T1, β2AR (Homo sapiens, UniProt P07550); test: Receptor internalization (loss of cell surface receptors, flow cytometry), β2AR
# V2Rβ2CT = target: T2, V2Rβ2CT (Homo sapiens, UniProt P07550+P30518); test: Confocal microscopy of arrestin trafficking with V2Rβ2CT in HEK-293 cells; format: cell-based; conditions: live HEK-293 cells expressing V2Rβ2CT, 15 min and longer
# T2 construct: the first 342 amino acids of the V2R (Met1-Cys342); the last 72 amino acids of the β2AR (Leu342 to Leu 413); expressed in transfected cells; host or cells: HEK-293
# Method: Twenty-four hours post-transfection cells were plated on collagen-coated 35 mm glass bottom plates. Cells were starved for at least 2 hrs in serum free medium prior to stimulation. After stimulation cells were fixed with 4% paraformaldehyde. For visualizing HA-tagged receptors, fixed cells were permeabilized with 0.01% Triton in PBS containing 2% BSA for 20 min and incubated at room temperature with 12CA5 antibody at 1:500 dilution. The secondary antibody, antimouse IgG conjugated to TexasRed, followed this. Antibody incubations were done for one hour followed by repeated washes using PBS. Cells expressing low and equivalent levels of the fluorescent proteins were carefully selected to examine YFP-β-arrestins. […] Live images were acquired using a heated (37° C.) microscope stage and collected sequentially using single line excitation (488 nm).
# β2AR [2] = target: T1, β2AR; test: Coimmunoprecipitation of YFP-β-arrestins with Flag-β2AR in COS-7 cells; format: binding; design: expressed in transfected cells; conditions: Flag-β2AR IP, 15 minutes of agonist treatment
# Source text: A) Stability of the ubiquitin chimera in COS-7 cells. […] The bands on the autorad were quantitated using Fluorimager and graphically represented in the figure. The zero time point represents 100% protein. The graph is an average of three independent experiments. B) Interaction of β-arrestin2-Ub chimera with β2AR. […] After stimulation or not the receptor was immunoprecipitated with anti-Flag beads in the absence (left panels) or presence (right panels) of the inhibitor NEM; the IP was blotted for YFP-β-arrestins with a monoclonal antibody to GFP (top panel). […] The blots are representative of similar blots from three independent experiments.
# Immunoprecipitation and Irnmunoblofting—To detect ubiquitinated β-arrestin2, β-arrestin2 with a C-terminal Flag epitope was transiently transfected into COS-7 cells. Cells were serum starved for at least 2 hrs and then stimulated or not for the stipulated times with the appropriate agonists. Cells were solubilized in a lysis buffer (LB) containing 50 mM Hepes (pH7.5), 0.5% NP40, 250 mM NaCl, 2 mM EDTA, 10% (vlv) glycerol, 1 mM sodium orthovanadate, 1 mM sodium fluoride, 1 mM phenylmethylsulfonyl fluoride, leupeptin (5 μg/ml) aprotinin (5 μg/ml), pepstatin A (1 μg/ml) benzaminidine (100 μM) 2 μM MG132 and 10 mM NEM. Soluble extracts were mixed with FLAG M2 affinity beads and rotated at 4° C. overnight. […]
# β2AR [3] = target: T1, β2AR; test: Confocal microscopy of arrestin trafficking with β2AR in HEK-293 cells; format: cell-based; design: expressed in transfected cells; host or cells: HEK-293; conditions: for colocalization with internalized β2AR in endocytic vesicles: fixed HEK-293 cells, HA-β2AR, 15 min isoproterenol; for distribution of YFP fluorescence after isoproterenol: live HEK293 cells over expressing β2AR, 10 μM isoproterenol, 15-30 min
# Method: Cells were starved for one hour in serum free media. […] Shown are representative confocal images of YFP-fluorescence followed in the same HEK-293 cells treated for 2, 15 and 30 min at 37° C.
# HEK-293 cells were transiently transfected with HA-β2AR and YFP-βarrestin2 (A) or YFP-β-arrestin2-Ub (B). After isoproterenol treatment or not the cells were fixed, permeabilized and stained for receptor with the primary antibody 12CA5 and secondary antibody anti mouse IgG conjugated to Texas Red. Shown are confocal images where receptor is visualized in the Red channels and β-arrestin in the green channels. Colocalization of two proteins is seen as yellow in the overlay. The results are representative of three independent experiments.
# HEK-293 cells on 10 cm dishes were transiently transfected with HA-β2AR, HA-V2R, HAβ2ARV2CT, or HAV2Rβ2CT, along with β-arr2-GFP, or YFP-βarrestin2, or YFP-β-arrestin2-Ub. Twenty-four hours post-transfection cells were plated on collagen-coated 35 mm glass bottom plates. Cells were starved for at least 2 hrs in serum free medium prior to stimulation. After stimulation cells were fixed with 4% paraformaldehyde. For visualizing HA-tagged receptors, fixed cells were permeabilized with 0.01% Triton in PBS containing 2% BSA for 20 min and incubated at room temperature with 12CA5 antibody at 1:500 dilution. The secondary antibody, antimouse IgG conjugated to TexasRed, followed this. Antibody incubations were done for one hour followed by repeated washes using PBS. Cells expressing low and equivalent levels of the fluorescent proteins were carefully selected to examine YFP-β-arrestins. Confocal images were obtained on Zeiss LSM510 laser scanning microscope using dual excitation (488, 568 nm) and emission (515-540 nm GFP, YFP; 590-610 nm, Texas red) filter sets. Live images were acquired using a heated (37° C.) microscope stage and collected sequentially using single line excitation (488 nm).
# β2AR [4] = target: T1, β2AR
"reduction of internalization (β2AR [1]; pretreatment of cells with 200 μM MDC, data not shown) [%]","β2AR internalization (β2AR [1]; HEK293 cells, arrestin overexpressed with Flag-β2AR, 10 μM isoproterenol 30 min, mean±SEM) [%]",Compound,distribution of YFP fluorescence after AVP (V2Rβ2CT),receptor-bound (coimmunoprecipitated) arrestin bands (β2AR [2]),colocalization with internalized β2AR in endocytic vesicles (β2AR [3]),distribution of YFP fluorescence after isoproterenol (β2AR [3]),increase in amount of β2AR degradation (β2AR [4])
45,–,"CN(C)c1cccc2c(S(=O)(=O)NCCCCCN)cccc12 [MDC, monodansylcadaverine]",–,–,–,–,–
–,–,YFP-β-arrestin2-Ub: YFP-labelled β-arrestin2-ubiquitin chimera from pEYFPC1 (SEQ ID NOS:1-2),moved into endocytic vesicles as early as 15 min,detectable with the chimeric protein,colocalize with the internalized β2AR,redistribute from the plasma membrane to endocytic vesicles,–
–,–,"YFP-β-arrestin2: wild type β-arrestin2 tagged with YFP, comparator",–,not detectable,did not however contain any YFP-β-arrestin2,unaltered at 30 min of isoproterenol treatment,–
–,33±1.6,β-arrestin2: wild type β-arrestin2 overexpressed as comparator,–,–,–,–,6-7%
